From publication PMC5897841, “Development of a multipurpose scaffold for the display of peptide loops” (Protein Engineering, Design and Selection, 2017) come the findings set out here.

By Kd is commonly meant a measure of binding affinity in units of concentration.

In test [1] the target is cRAD-TPX2_((7–43)) display protein (Pyrococcus furiosus | human) (UniProt O74036). The test is described as follows: SPR; Biacore T100, CM5, peptides or cRAD display proteins immobilised through their cysteine (240-400 RU), kinase as analyte 2.5 nM-2.5 μM, 25°C, 10 mM HEPES pH 7.4, 500 mM NaCl, 0.05% P20; 1:1 steady-state affinity model; CK2α data analysed at 200 s post-injection.

For test [2], the target named is Alexa Fluor 488-labeled cRAD-TPX2_((7–43)) display protein (Pyrococcus furiosus | human) (UniProt O74036). The test is described as follows: fluorescence polarisation; fluorescence anisotropy, direct titration of kinase (CK2α 2 nM-2 μM; Aurora A D274N 2 nM-1.5 μM) into labelled peptide or display protein; 10 mM HEPES pH 7.4, 500 mM NaCl, 1 mM DTT, 0.05% P20; room temperature; 1:1 model. A general note: Fluorescence polarisation rises when a labelled molecule tumbles more slowly, as on binding a larger partner.

B1: Aurora A_(D274N) kinase domain (domain or fragment)
chain: ESKKRQWALEDFEIGRPLGKGKFGNVYLAREKQSKFILALKVLFKAQLEKAGVEHQLRREVEIQSHLRHPNILRLYGYFHDATRVYLILEYAPLGTVYRELQKLSKFDEQRTATYITELANALSYCHSKRVIHRDIKPENLLLGSAGELKIANFGWSVHAPSSRRTTLCGTLDYLPPEMIEGRMHDEKVDLWSLGVLCYEFLVGKPPFEANTYQETYKRISRVEFTFPDFVTEGARDLISRLLKHNPSQRPMLREVLEHPWITANSSKPSNCQNKESASKQS
Consider B1, for which the Kd is 168 nM in test [1] and 98 nM in test [2].
